Data on 5 molecules can be found in patent US20260055148A1 (USTAV ORGANICKE CHEMIE A BIOCHEMIE AV CR V V I, published 2026).

In general, kon refers to a measure of how fast the partners come together. Usually Kd stands for the constant that tells how readily two partners part at equilibrium. A high value points to a looser complex. One may read the koff as the rate constant with which the complex falls apart. Read a low koff as a long-lived complex.

Test [1] has as its target His-C3d N1134A (human) (UniProt P01024). The experiment in a line: SPR BIAcore T200, biotinylated ISG65-Avi immobilised, C3d N1134A as analyte; kon1.
The target is the same in test [2]. Kind of test: SPR, relative to wild type C3d. For orientation: In SPR one partner is held on a chip, and binding of the other changes the refractive index at the surface.
For test [3] the target is unchanged. Kind of test: SPR BIAcore T200, biotinylated ISG65-Avi immobilised, C3d N1134A as analyte.
The target is the same in test [4]. Kind of test: SPR BIAcore T200, biotinylated ISG65-Avi immobilised, C3d N1134A as analyte; koff1.
Test [5] has as its target C3b (human complement C3b) (human, UniProt P01024 23-667; P01024 749-1663). The experiment in a line: cell-based or functional assay.
The target of test [6] is T1, His-C3d-Avi, biotinylated (human complement C3d with N-terminal His-tag and C-terminal Avi-tag) (human, UniProt P01024 996-1303, site-specific biotinylation of the C-terminal Avi-tag).
T1 construct: domain: C3d; SPR ligand for the ISG65 mutants; not shown: N-terminal His-tag (pET15b); C-terminal Avi-tag
T1 sequence (P01024 996-1303 limits assumed): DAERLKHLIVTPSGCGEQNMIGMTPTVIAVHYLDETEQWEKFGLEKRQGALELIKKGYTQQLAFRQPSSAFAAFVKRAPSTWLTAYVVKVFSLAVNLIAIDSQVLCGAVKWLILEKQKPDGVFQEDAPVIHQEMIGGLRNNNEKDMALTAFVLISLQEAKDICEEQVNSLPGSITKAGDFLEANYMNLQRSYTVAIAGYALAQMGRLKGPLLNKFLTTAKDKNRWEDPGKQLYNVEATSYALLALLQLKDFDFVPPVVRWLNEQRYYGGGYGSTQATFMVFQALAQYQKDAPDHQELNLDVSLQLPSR
Kind of test: SPR BIAcore T200, biotinylated C3d-Avi immobilised, ISG65 mutant as analyte.

Test [7] deals with T1, His-C3d-Avi, biotinylated (human …). The experiment in a line: SPR, relative to wild type ISG65.
Test [8] has the same target. Kind of test: SPR BIAcore T200, biotinylated C3d-Avi immobilised, ISG65 mutant as analyte; kon1.
For test [9] the target is unchanged. The experiment in a line: SPR BIAcore T200, biotinylated C3d-Avi immobilised, ISG65 mutant as analyte; koff1.
Test [10] shares this target. The experiment in a line: SPR BIAcore T200, biotinylated C3d-Avi immobilised, ISG65 mutant as analyte; overall KD of a two-step fit (kon1, kon2, koff1, koff2).
Test [11] has the same target. Kind of test: SPR BIAcore T200, biotinylated C3d-Avi immobilised, ISG65 mutant as analyte; kon1; kon1, first step of the two-step fit.
For test [12] the target is unchanged. The experiment in a line: SPR BIAcore T200, biotinylated C3d-Avi immobilised, ISG65 mutant as analyte; koff1; koff1, first step of the two-step fit.

Sequence of His-C3d N1134A (human) (P01024 996-1303, stated change not applied): as the sequence (P01024 996-1303 limits assumed) above
Sequence of C3b (human complement C3b) (P01024 23-667 limits assumed, chain 1 of 2): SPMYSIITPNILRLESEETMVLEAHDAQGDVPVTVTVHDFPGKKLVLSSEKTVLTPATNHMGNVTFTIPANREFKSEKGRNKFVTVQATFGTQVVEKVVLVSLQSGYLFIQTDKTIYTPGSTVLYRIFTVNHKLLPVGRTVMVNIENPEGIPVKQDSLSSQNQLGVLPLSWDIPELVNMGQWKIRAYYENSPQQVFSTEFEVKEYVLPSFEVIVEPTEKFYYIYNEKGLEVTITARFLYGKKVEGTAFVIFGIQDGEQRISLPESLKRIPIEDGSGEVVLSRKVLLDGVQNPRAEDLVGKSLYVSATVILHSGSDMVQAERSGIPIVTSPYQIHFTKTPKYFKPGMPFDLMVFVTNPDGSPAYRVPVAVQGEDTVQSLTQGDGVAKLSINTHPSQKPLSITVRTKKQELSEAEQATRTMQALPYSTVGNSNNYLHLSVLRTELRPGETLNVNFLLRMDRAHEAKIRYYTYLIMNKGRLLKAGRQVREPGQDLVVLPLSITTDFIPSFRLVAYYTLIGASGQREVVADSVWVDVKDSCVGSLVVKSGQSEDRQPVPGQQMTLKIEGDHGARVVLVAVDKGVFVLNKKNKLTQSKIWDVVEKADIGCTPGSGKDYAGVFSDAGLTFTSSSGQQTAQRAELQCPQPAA
Sequence of C3b (human complement C3b) (P01024 749-1663 limits assumed, chain 2 of 2): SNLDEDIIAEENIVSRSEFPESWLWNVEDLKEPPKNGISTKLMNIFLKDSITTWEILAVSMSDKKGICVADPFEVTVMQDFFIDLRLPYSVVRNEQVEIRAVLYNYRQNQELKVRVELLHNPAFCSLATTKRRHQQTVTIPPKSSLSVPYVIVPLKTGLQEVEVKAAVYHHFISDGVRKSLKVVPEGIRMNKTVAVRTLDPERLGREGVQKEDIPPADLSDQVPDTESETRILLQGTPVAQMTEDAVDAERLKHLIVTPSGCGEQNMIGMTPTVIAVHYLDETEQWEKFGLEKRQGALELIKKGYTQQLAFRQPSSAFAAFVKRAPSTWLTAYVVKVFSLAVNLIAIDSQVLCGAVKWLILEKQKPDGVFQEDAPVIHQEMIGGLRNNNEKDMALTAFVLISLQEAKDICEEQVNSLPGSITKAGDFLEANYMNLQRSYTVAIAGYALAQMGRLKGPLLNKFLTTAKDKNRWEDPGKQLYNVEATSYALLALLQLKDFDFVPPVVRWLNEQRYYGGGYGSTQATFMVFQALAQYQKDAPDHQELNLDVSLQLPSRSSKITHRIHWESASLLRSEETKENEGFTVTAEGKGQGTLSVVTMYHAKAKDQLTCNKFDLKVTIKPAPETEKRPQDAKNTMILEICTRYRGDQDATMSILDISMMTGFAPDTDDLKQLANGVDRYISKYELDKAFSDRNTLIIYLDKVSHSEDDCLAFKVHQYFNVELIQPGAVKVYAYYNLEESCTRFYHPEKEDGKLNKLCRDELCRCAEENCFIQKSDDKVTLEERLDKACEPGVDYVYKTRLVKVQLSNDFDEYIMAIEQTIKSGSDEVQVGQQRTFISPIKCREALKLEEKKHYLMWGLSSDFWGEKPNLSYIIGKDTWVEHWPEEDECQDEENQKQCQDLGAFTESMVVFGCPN

“His-ISG65 18-363-Avi, biotinylated at the C-terminal Avi-tag (receptor)” yielded a kon with His-C3d N1134A (human) [1] of 1.89e+06 M⁻¹ s⁻¹. This molecule showed an ISG65 binding (%) with His-C3d N1134A (human) [2] of 25%. The same molecule yielded a Kd with His-C3d N1134A (human) [3] of 28.6 nM. The koff in the test with His-C3d N1134A (human) [4] is 0.0542 s⁻¹.

B1: ISG65 M2 (thermostable mutant of the ISG65 extracellular domain 18-363 with N-terminal His-tag) (receptor)
chain: MGSSHHHHHHSSGLVPRGSHMLLVIGSEDNRVPGDKKLTKEGAAALCKMKHLADKVAKERSQELKDRTQNFAGYIEFELYRIDYWLEKLNGPKGRKDGYAKLSDSDIKKVKEIFEKAKDGITKQLPEAKKAAEEAEKLHQEVKEAAEKARGQDLDDDTAKSTGLYRVLNWYCITKEERHNATPNCDGIQFRKHYLSVNRSAIDCSSTSYEENYDWSANALQVALNSWEDKKPKKLESAGSDKNCNIGQSSESHPCTMTEEWQTHYKETIEKLRELEEAYQRGKKAHDDMLGYANTAYAVNTKVEQEKPLSEVIAAAKEAGKKGAKIIIPAAAPATPTNSTKNDDSAPTEHVDRGIATNETQVEVGID
Turning to B1, in [5], the “relative AP50 of human plasma, day 0” value is 15 fold.

B2: His-ISG65 18-363 T297A (receptor)
chain: MGSSHHHHHHSSGLVPRGSHMLLVIGSEDNRVPGDKKLTKEGAAALCKMKHLADKVAKERSQELKDRTQNFAGYIEFELYRIDYWLEKLNGPKGRKDGYAKLSDSDIEKVKEIFNKAKDGITKQLPEAKKAGEEAGKLHTEVKKAAENARGQDLDDDTAKSTGLYRVLNWYCITKEERHNATPNCDGIQFRKHYLSVNRSAIDCSSTSYEENYDWSANALQVALNSWEDVKPKKLESAGSDKNCNIGQSSESHPCTMTEEWQTPYKETVEKLRELEDAYQRGKKAHDAMLGYANTAYAVNAKVEQEKPLTEVIAAAKEAGKKGAKIIIPAAAPATPTNSTKNDDSAPTEHVDRGIATNETQVEVGID
notes: also called ISG65 T297A
B2: in test [6], the Kd is 182 nM and the koff2 is 0.002 s⁻¹. The “C3d binding (%)” value in [7] came to 15%. The kon in test [8] stood at 171000 M⁻¹ s⁻¹. This molecule displayed a koff in [9] of 0.05 s⁻¹.

B3: His-ISG65 18-363 W211A (receptor)
chain: MGSSHHHHHHSSGLVPRGSHMLLVIGSEDNRVPGDKKLTKEGAAALCKMKHLADKVAKERSQELKDRTQNFAGYIEFELYRIDYWLEKLNGPKGRKDGYAKLSDSDIEKVKEIFNKAKDGITKQLPEAKKAGEEAGKLHTEVKKAAENARGQDLDDDTAKSTGLYRVLNWYCITKEERHNATPNCDGIQFRKHYLSVNRSAIDCSSTSYEENYDASANALQVALNSWEDVKPKKLESAGSDKNCNIGQSSESHPCTMTEEWQTPYKETVEKLRELEDAYQRGKKAHDAMLGYANTAYAVNTKVEQEKPLTEVIAAAKEAGKKGAKIIIPAAAPATPTNSTKNDDSAPTEHVDRGIATNETQVEVGID
notes: also called ISG65 W211A
In the case of B3, the koff2 in test [6] was found to be 0.39 s⁻¹. Further, the “C3d binding (%)” value in test [7] worked out at 42%. The molecule further yielded a Kd in [10] of 66.8 nM. This molecule had a kon in test [11] of 320000 M⁻¹ s⁻¹. In addition, in test [12], the off-rate (koff) worked out at 0.16 s⁻¹.

B4: His-ISG65 18-363 Y70A (receptor)
chain: MGSSHHHHHHSSGLVPRGSHMLLVIGSEDNRVPGDKKLTKEGAAALCKMKHLADKVAKERSQELKDRTQNFAGAIEFELYRIDYWLEKLNGPKGRKDGYAKLSDSDIEKVKEIFNKAKDGITKQLPEAKKAGEEAGKLHTEVKKAAENARGQDLDDDTAKSTGLYRVLNWYCITKEERHNATPNCDGIQFRKHYLSVNRSAIDCSSTSYEENYDWSANALQVALNSWEDVKPKKLESAGSDKNCNIGQSSESHPCTMTEEWQTPYKETVEKLRELEDAYQRGKKAHDAMLGYANTAYAVNTKVEQEKPLTEVIAAAKEAGKKGAKIIIPAAAPATPTNSTKNDDSAPTEHVDRGIATNETQVEVGID
notes: also called ISG65 Y70A
In test [6], B4 came in with a koff2 of 0.58 s⁻¹. In addition, in [7], the “C3d binding (%)” value came to 36%. Binding in [10] was put at a Kd of 78.2 nM. The kon in [11] was 118000 M⁻¹ s⁻¹. In test [12], this molecule registered a koff of 0.14 s⁻¹.
